What all share (test): BLI
In general terms: In BLI a coated tip is dipped into the sample, and binding shifts an interference pattern.

Assay [1] has as its target T1, Biotin-PEG-EAEEPSLLKKLLLAPANTQ-NH2 (LXXLL motif peptide, amino acids 135-153 of PPAR coactivator 1α, PGC-1α) (SMILES …).
T1 peptide: {Biotin-AEEA}-EAEEPSLLKKLLLAPANTQ-NH2

Assay [2] concerns the target T1, Biotin-PEG-EAEEPSLLKKLLLAPANTQ-NH2 ….
The target is the same in assay [3].

The star is where a group is joined. Biotin = O=C1N[C@H]2[C@H](CS[C@H]2CCCCC(=O)*)N1; AEEA = NCCOCCOCC(=O)O

B1: Full-length mouse PPAR-α (peroxisome proliferator-activated receptor α), tag-free (natural protein, UniProt P23204 1-468, looked up)
chain: MVDTESPICPLSPLEADDLESPLSEEFLQEMGNIQEISQSIGEESSGSFGFADYQYLGSCPGSEGSVITDTLSPASSPSSVSCPVIPASTDESPGSALNIECRICGDKASGYHYGVHACEGCKGFFRRTIRLKLVYDKCDRSCKIQKKNRNKCQYCRFHKCLSVGMSHNAIRFGRMPRSEKAKLKAEILTCEHDLKDSETADLKSLGKRIHEAYLKNFNMNKVKARVILAGKTSNNPPFVIHDMETLCMAEKTLVAKMVANGVEDKEAEVRFFHCCQCMSVETVTELTEFAKAIPGFANLDLNDQVTLLKYGVYEAIFTMLSSLMNKDGMLIAYGNGFITREFLKNLRKPFCDIMEPKFDFAMKFNALELDDSDISLFVAAIICCGDRPGLLNIGYIEKLQEGIVHVLKLHLQSNHPDDTFLFPKLLQKMVDLRQLVTEHAQLVQVIKKTESDAALHPLLQEIYRDMY
For the molecule B1, the “EC50 of ciprofibrate (small-molecule ligand of PPAR-α) in promoting the binding” value in assay [1] was found to be 5.4 µM. In addition, the “EC50 of palmitic acid (small-molecule ligand of PPAR-α) in promoting the binding” value in assay [2] is 190 µM. In addition, in assay [3], the “EC50 of TFA (small-molecule ligand of PPAR-α) in promoting the binding” value amounted to 4900 µM.

Source of the values: PMC13635227 (Nature Communications, 2026).
